From US20040072753

How the values were obtained:
[1] = system: Aβ 1-42
[2] = system: Aβ 1-40
[3] = system: T1, Aβ 25-35
T1 sequence: GSNKGAIIGLM

[4] = system: T2, histone H1 peptide substrate PKTPKKAKKL
T2 sequence: PKTPKKAKKL

recombinant p34-cdc2/cyclin B1 (Promega)
incorporation of 32P from γ32P-ATP [1]: Aβ 1-42, Aβ 1-40 and Aβ 25-35 incorporated 32P from γ32P-ATP | incorporation of 32P from γ32P-ATP [2]: Aβ 1-42, Aβ 1-40 and Aβ 25-35 incorporated 32P from γ32P-ATP | incorporation of 32P from γ32P-ATP [3]: Aβ 1-42, Aβ 1-40 and Aβ 25-35 incorporated 32P from γ32P-ATP | Michaelis constant (KM) for the phosphorylation [4]: a KM of 2.7 µM for the H1 peptide substrate
